Assay results as given in US6100053A, “Microbial transglutaminases, their production and use” (priority 1994, dated 2000).

Biological target: α-casein

Row | Substance | Units/ml (putrescine assay) [Units/ml]
1 | transglutaminase preparation (culture broth) of Agaricus sp. (pool or library) | 0.15
2 | transglutaminase preparation (culture broth) of Alternaria alternata (pool or library) | 0.16
3 | transglutaminase preparation (culture broth) of Amanita virosa (pool or library) | 0.14
4 | transglutaminase preparation (culture broth) of Amylostereum chailletii (pool or library) | 0.44
5 | transglutaminase preparation (culture broth) of Antrodia serialis (pool or library) | 0.8
6 | transglutaminase preparation (culture broth) of Armillaria sp. (pool or library) | 0.62
7 | transglutaminase preparation (culture broth) of Ascotricha erinacea (pool or library) | 0.15
8 | transglutaminase preparation (culture broth) of Aspergillus foetidus (pool or library) | 0.23
9 | transglutaminase preparation (culture broth) of Aspergillus giganteus (pool or library) | 0.19
10 | transglutaminase preparation (culture broth) of Aspergillus heteromorphus (pool or library) | 0.12
11 | transglutaminase preparation (culture broth) of Aspergillus puniceus (pool or library) | 0.12
12 | transglutaminase preparation (culture broth) of Aspergillus tamarii (pool or library) | 0.16
13 | transglutaminase preparation (culture broth) of Auricularia polytricha (pool or library) | 0.18
14 | transglutaminase preparation (culture broth) of Beauveria calendonica (pool or library) | 0.25
15 | transglutaminase preparation (culture broth) of Beauveria cylindrospora (pool or library) | 0.24
16 | transglutaminase preparation (culture broth) of Botryosphaeria rhodina (pool or library) | 0.32
17 | transglutaminase preparation (culture broth) of Byssochlamys fulva (pool or library) | 0.24
18 | transglutaminase preparation (culture broth) of Carponia solliomaris (pool or library) | 0.11
19 | transglutaminase preparation (culture broth) of Cercospora beticola (pool or library) | 1.58
20 | transglutaminase preparation (culture broth) of Cercospora carisis (pool or library) | 13
21 | transglutaminase preparation (culture broth) of Cercospora fusimaculans (pool or library) | 1.3

Row | Substance | Units/ml (putrescine assay) [Units/ml]
22 | transglutaminase preparation (culture broth) of Cercospora hayi (pool or library) | 0.26
23 | transglutaminase preparation (culture broth) of Cercospora sesami (pool or library) | 0.24
24 | transglutaminase preparation (culture broth) of Cercospora traversiana (pool or library) | 0.53
25 | transglutaminase preparation (culture broth) of Chaetomium funicolum (pool or library) | 0.16
26 | transglutaminase preparation (culture broth) of Chamaemyces fracidus (pool or library) | 0.2
27 | transglutaminase preparation (culture broth) of Cladosporium cladosporiodes (pool or library) | 0.22
28 | transglutaminase preparation (culture broth) of Cladosporium oxysporum (pool or library) | 0.19
29 | transglutaminase preparation (culture broth) of Cladosporium resinae (pool or library) | 0.14
30 | transglutaminase preparation (culture broth) of Cladosporium sphaeospermum (pool or library) | 1.07
31 | transglutaminase preparation (culture broth) of Cochliobolus sativus (pool or library) | 0.09
32 | transglutaminase preparation (culture broth) of Coniothyrium cerealis (pool or library) | 0.13
33 | transglutaminase preparation (culture broth) of Coprinus cinereus (pool or library) | 0.14
34 | transglutaminase preparation (culture broth) of Coprinus sp. (pool or library) | 0.44
35 | transglutaminase preparation (culture broth) of Cunninghamella elegans (pool or library) | 0.23
36 | transglutaminase preparation (culture broth) of Curvularia borreiae (pool or library) | 0.28
37 | transglutaminase preparation (culture broth) of Dendryphiella salina (pool or library) | 0.96
38 | transglutaminase preparation (culture broth) of Dimorphosporum disporatrichum (pool or library) | 0.42
39 | transglutaminase preparation (culture broth) of Fusarium armeniacum (pool or library) | 0.19
40 | transglutaminase preparation (culture broth) of Fusarium decemcellulare (pool or library) | 0.1
41 | transglutaminase preparation (culture broth) of Fusarium dimerum (pool or library) | 0.25
42 | transglutaminase preparation (culture broth) of Fusarium flocciferum (pool or library) | 0.15

Row | Substance | Units/ml (putrescine assay) [Units/ml]
43 | transglutaminase preparation (culture broth) of Fusarium merismoides (pool or library) | 0.16
44 | transglutaminase preparation (culture broth) of Fusarium redolens (pool or library) | 0.16
45 | transglutaminase preparation (culture broth) of Gymnopilus junonius (pool or library) | 0.2
46 | transglutaminase preparation (culture broth) of Halosphaeriopsis mediosetigera (pool or library) | 0.34
47 | transglutaminase preparation (culture broth) of Hortea werneckii (pool or library) | 0.95
48 | transglutaminase preparation (culture broth) of Humicola alopallonella (pool or library) | 0.76
49 | transglutaminase preparation (culture broth) of Hygrophoropsis aurantiaca (pool or library) | 0.17
50 | transglutaminase preparation (culture broth) of Hymenochaete corticola (pool or library) | 1.31
51 | transglutaminase preparation (culture broth) of Hypholoma fasciculare (pool or library) | 0.14
52 | transglutaminase preparation (culture broth) of Kuhneromyces variabilis (pool or library) | 0.14
53 | transglutaminase preparation (culture broth) of Lignincola sp. (pool or library) | 0.15
54 | transglutaminase preparation (culture broth) of Lulworthia uniseptata (pool or library) | 0.36
55 | transglutaminase preparation (culture broth) of Lyophyllum sp. (pool or library) | 0.25
56 | transglutaminase preparation (culture broth) of Monodictys pelagica (pool or library) | 2.31
57 | transglutaminase preparation (culture broth) of Mucor aligarensis (pool or library) | 0.31
58 | transglutaminase preparation (culture broth) of Mucor luteus (pool or library) | 0.34
59 | transglutaminase preparation (culture broth) of Myrothecium roridum (pool or library) | 0.13
60 | transglutaminase preparation (culture broth) of Neosartorya quadricineta (pool or library) | 0.22
61 | transglutaminase preparation (culture broth) of Nidula sp. (pool or library) | 0.14
62 | transglutaminase preparation (culture broth) of Nodulisporium sp. (pool or library) | 1.2
63 | transglutaminase preparation (culture broth) of Panaeolus papilionaceus (pool or library) | 0.15
